{
  "source": "patent US20260183405A1",
  "about": "“SMALL MOLECULE-DRUG-CONJUGATES CLEAVABLE IN A TUMOR MICROENVIRONMENT” (priority 2022, published 2026)",
  "key": {"HT29": {"tested_on": "HT29", "assay": "Cytotoxicity in vitro in the presence and absence of elastase (MTT assay)", "format": "cell-based", "conditions": "HT29 cells, 72 h incubation", "procedure,_shortened": "(§1)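 Elastase dependence was tested by running each compound (10^−5 to 10^−13 M) side by side alone and with 10 nM NE for 72 h at 37 °C. Metabolic activity was assessed by MTT at 570 nm; automated runs report AC50 at −50% activity from a 4-parameter Hill fit with medium-only and DMSO controls as anchors.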"}, "SUM149PT": {"tested_on": "SUM149PT", "assay": "Cytotoxicity in vitro in the presence and absence of elastase (MTT assay)", "format": "cell-based", "conditions": "SUM149PT cells, 72 h incubation", "procedure,_shortened": "as §1"}, "NCI-H292": {"tested_on": "NCI-H292", "assay": "Cytotoxicity in vitro in the presence and absence of elastase (MTT assay)", "format": "cell-based", "conditions": "NCI-H292 cells, 72 h incubation", "procedure,_shortened": "as §1"}, "human Elastase": {"molecular_target": "T1, human Elastase (Homo sapiens, UniProt P08246)", "T1 sequence (P08246 30-267)": "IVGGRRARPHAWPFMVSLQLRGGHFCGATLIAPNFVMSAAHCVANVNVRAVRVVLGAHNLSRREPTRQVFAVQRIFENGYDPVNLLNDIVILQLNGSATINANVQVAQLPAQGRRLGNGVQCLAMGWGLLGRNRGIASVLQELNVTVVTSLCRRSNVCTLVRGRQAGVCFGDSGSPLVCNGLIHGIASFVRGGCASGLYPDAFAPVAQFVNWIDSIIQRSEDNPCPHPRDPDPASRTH", "assay": "Elastase cleavability test", "format": "biochemical", "conditions": "5 μM test compound, 1 h at 37° C.", "protocol": "The test compound was added to buffer (150 mM NaCl, 10 mM CaCl2, 0.05% BSA) to a final concentration of 5 μM (0.5% DMSO). The reaction was started by adding different concentrations of human Elastase (0, 20, 40, 60 nM) to the reaction vials. After incubation for 1 h at 37° C., the enzymatic reaction was stopped by precipitation in 50% ACN. Subsequently, the samples were subjected to HPLC-MS analysis to determine the concentration of test compound and of its metabolite."}, "[1]": {"assay": "Pharmacokinetics in rat after intravenous administration", "format": "in vivo", "conditions": "plasma, male rats, intravenous bolus 0.5 mg/kg; for clearance: read-out: CL plasma; for Vd: read-out: VSS", "protocol": "Male rats (n=3) were given an intravenous 0.5 mg/kg bolus dose of test article dissolved in plasma with 1% DMSO and 2% ethanol. Serial blood samples were collected up to 24 hours post-dose. Plasma was harvested from blood samples and stored frozen until sample analysis. Test article plasma concentrations were analyzed by LC/MS/MS. Pharmacokinetic parameters were calculated using non-compartmental analysis."}, "[2]": {"assay": "Stability in human plasma", "format": "in vitro ADME", "conditions": "37° C., percent area of the initial compound at t0 (HPLC), read-out: Stability human plasma after 4 h", "protocol": "(§2) 1 mg of the respective test compound of is dissolved in a mixture of 1.5 mL dimethylsulfoxide and 1 ml water. For complete dissolution, the HPLC vial is shaken and treated with an ultrasound. 500 μl of this solution is added to 0.5 mL of plasma with vortexing at a temperature of 37° C. Aliquots (10 μL each) are taken at respective time points and analyzed by HPLC to determine the amount of the test compound. All data is given as percent area of the initial compound at to."}, "Stability in buffer": {"assay": "Stability in buffer", "format": "physicochemical", "conditions": "HPLC peak area in percentage", "protocol": "0.15 mg of the test compound are solved in 0.1 ml dimethylsulfoxide and 0.4 ml acetonitrile. For complete dissolution the HPLC vial with the sample solution is shaken and sonicated. Then 1.0 ml of the respective buffer solution is added, and the sample is vortexed. The sample solution is analysed by HPLC to determine the amount of the test compound and up to two byproducts at a particular time over a period of 24 h at 37° C. to values result from a sample immediately taken after vortexing with buffer at RT. The peak areas (in percentage) are used for quantification."}, "Stability in rat plasma": {"assay": "Stability in rat plasma", "format": "in vitro ADME", "conditions": "37° C., percent area of the initial compound at t0 (HPLC), read-out: Stability rat plasma after 4 h", "protocol": "as §2"}, "786-O": {"tested_on": "786-O", "assay": "Cytotoxicity in vitro in the presence and absence of elastase (MTT assay)", "format": "cell-based", "conditions": "786-O cells, 72 h incubation", "procedure,_shortened": "as §1"}, "[3]": {"conditions": "compound alone, read-out: IC50 without neutrophil elastase"}, "[4]": {"conditions": "with 10 nM elastase (NE), read-out: IC50 with neutrophil elastase"}, "[5]": {"conditions": "buffer pH 4, 37° C., read-out: Stability buffer pH 4 after 24 h"}, "[6]": {"conditions": "buffer pH 7.4, 37° C., read-out: Stability buffer pH 7.4 after 24 h"}},
  "note": "Read-outs that look alike come from different tables or passages of the source.",
  "data": [
    {"smiles": "CCCNC(=O)Nc1cccc(S(=O)(=O)Nc2cccc([C@@H](CC(=O)O)NC(=O)Nc3ccc(NC(=O)NCCOCCOCCOCCC(=O)N[C@@H](CC(=O)O)C(=O)N4CCC[C@H]4C(=O)N[C@H](C(=O)N[C@@H](CCN(C(=O)CO)[C@@H](c4cc(-c5cc(F)ccc5F)cn4Cc4ccccc4)C(C)(C)C)C(=O)NC)C(C)C)cc3)c2)c1", "note": "[Compound 26, disodium 1-[(2S)-2-(carboxylatomethyl)-17-{4-[({(1R)-2-carboxylato-1-[3-({3-[(propylcarbamoyl)amino]benzene-1-sulfonyl}amino)phenyl]ethyl}carbamoyl)amino]anilino}-4,17-dioxo-7,10,13-trioxa-3,16-diazaheptadecanan-1-oyl]-L-prolyl-N-[(2S)-4-[{(1R)-1-[1-benzyl-4-(2,5-difluorophenyl)-1H-pyrrol-2-yl]-2,2-dimethylpropyl}(hydroxyacetyl)amino]-1-(methylamino)-1-oxobutan-2-yl]-L-valinamide]", "values": [
      {"measurement": "IC50", "setting": "HT29; [3]", "value": "> 1000", "unit": "nM"},
      {"measurement": "IC50", "setting": "HT29; [4]", "value": "1 to 9.9", "unit": "nM"},
      {"measurement": "IC50", "setting": "SUM149PT; [3]", "value": "> 1000", "unit": "nM"},
      {"measurement": "IC50", "setting": "SUM149PT; [4]", "value": "0.1 to 1", "unit": "nM"},
      {"measurement": "IC50", "setting": "NCI-H292; [3]", "value": "> 1000", "unit": "nM"},
      {"measurement": "IC50", "setting": "NCI-H292; [4]", "value": "1 to 9.9", "unit": "nM"},
      {"measurement": "Payload release after 1 h", "setting": "human Elastase; Elastase Concentration 0 nM", "value": "D (D = <1%)"},
      {"measurement": "Payload release after 1 h", "setting": "human Elastase; Elastase Concentration 20 nM", "value": "B (B = >20%)"},
      {"measurement": "AUC", "setting": "[1]", "value": "1000 to 10000", "unit": "ng·h/mL"},
      {"measurement": "half-life", "setting": "[1]", "value": "< 0.5", "unit": "h"},
      {"measurement": "clearance", "setting": "[1]", "value": "0.5 to 5", "unit": "mL/min/kg"},
      {"measurement": "Vd", "setting": "[1]", "value": "0.01 to 0.1", "unit": "L/kg"},
      {"measurement": "remaining at 4 h, 0.2 mg/mL", "setting": "[2]", "value": 100, "unit": "%"},
      {"measurement": "remaining at 24 h, 0.1 mg/mL", "setting": "Stability in buffer; [5]", "value": 94, "unit": "%"},
      {"measurement": "remaining at 24 h, 0.1 mg/mL", "setting": "Stability in buffer; [6]", "value": 100, "unit": "%"},
      {"measurement": "remaining at 4 h, 0.2 mg/mL", "setting": "Stability in rat plasma", "value": 100, "unit": "%"}
    ]},
    {"smiles": "CCCNC(=O)Nc1cccc(S(=O)(=O)Nc2cccc([C@@H](CC(=O)O)NC(=O)Nc3ccc(NC(=O)NCCOCCOCCOCCC(=O)N[C@@H](CC(N)=O)C(=O)N4CCC[C@H]4C(=O)N[C@H](C(=O)NCCCN(C(=O)CO)[C@@H](c4cc(-c5cc(F)ccc5F)cn4Cc4ccccc4)C(C)(C)C)C(C)C)cc3)c2)c1", "note": "[Compound 17, sodium N^2-(14-{4-[({(1R)-2-carboxylato-1-[3-({3-[(propylcarbamoyl)amino]benzene-1-sulfonyl}amino)phenyl]ethyl}carbamoyl)amino]anilino}-14-oxo-4,7,10-trioxa-13-azatetradecanan-1-oyl)-L-asparaginyl-L-prolyl-N-{3-[{(1R)-1-[1-benzyl-4-(2,5-difluorophenyl)-1H-pyrrol-2-yl]-2,2-dimethylpropyl}(hydroxyacetyl)amino]propyl}-L-valinamide]", "values": [
      {"measurement": "IC50", "setting": "HT29; [3]", "value": "> 1000", "unit": "nM"},
      {"measurement": "IC50", "setting": "HT29; [4]", "value": "1 to 9.9", "unit": "nM"},
      {"measurement": "IC50", "setting": "SUM149PT; [3]", "value": "100 to 999", "unit": "nM"},
      {"measurement": "IC50", "setting": "SUM149PT; [4]", "value": "0.1 to 1", "unit": "nM"},
      {"measurement": "IC50", "setting": "NCI-H292; [3]", "value": "100 to 999", "unit": "nM"},
      {"measurement": "IC50", "setting": "NCI-H292; [4]", "value": "1 to 9.9", "unit": "nM"},
      {"measurement": "IC50", "setting": "786-O; [3]", "value": "> 1000", "unit": "nM"},
      {"measurement": "IC50", "setting": "786-O; [4]", "value": "1 to 9.9", "unit": "nM"},
      {"measurement": "Payload release after 1 h", "setting": "human Elastase; Elastase Concentration 0 nM", "value": "D (D = <1%)"},
      {"measurement": "Payload release after 1 h", "setting": "human Elastase; Elastase Concentration 20 nM", "value": "C (C = >1%)"},
      {"measurement": "AUC", "setting": "[1]", "value": "1000 to 10000", "unit": "ng·h/mL"},
      {"measurement": "half-life", "setting": "[1]", "value": "5 to 10", "unit": "h"},
      {"measurement": "clearance", "setting": "[1]", "value": "0.5 to 5", "unit": "mL/min/kg"},
      {"measurement": "Vd", "setting": "[1]", "value": "0.3 to 0.9", "unit": "L/kg"},
      {"measurement": "remaining at 4 h, 0.2 mg/mL", "setting": "[2]", "value": 100, "unit": "%"},
      {"measurement": "remaining at 24 h, 0.1 mg/mL", "setting": "Stability in buffer; [5]", "value": 100, "unit": "%"},
      {"measurement": "Stability buffer pH 7.4 after 24 h", "setting": "Stability in buffer; buffer pH 7.4, 37° C.", "value": 100, "unit": "%"},
      {"measurement": "remaining at 4 h, 0.2 mg/mL", "setting": "Stability in rat plasma", "value": 100, "unit": "%"}
    ]},
    {"smiles": "CCCNC(=O)Nc1cccc(S(=O)(=O)Nc2cccc([C@@H](CC(=O)O)NC(=O)Nc3ccc(NC(=O)NCCOCCOCCOCCC(=O)N[C@@H](CC(=O)O)C(=O)N4CCC[C@H]4C(=O)N[C@H](C(=O)O[C@@H](c4ccccc4)[C@@H](C)NC(=O)[C@H](C)C(OC)[C@@H]4CCCN4C(=O)CC(OC)[C@H]([C@@H](C)CC)N(C)C(=O)[C@@H](NC(=O)[C@@H](NC)C(C)C)C(C)C)C(C)C)cc3)c2)c1", "note": "(some centres unmarked) [Compound 13]", "values": [
      {"measurement": "Payload release after 1 h", "setting": "human Elastase; Elastase Concentration 0 nM", "value": "D (D = <1%)"},
      {"measurement": "Payload release after 1 h", "setting": "human Elastase; Elastase Concentration 20 nM", "value": "A (A = >70%)"},
      {"measurement": "AUC", "setting": "[1]", "value": "1000 to 10000", "unit": "ng·h/mL"},
      {"measurement": "half-life", "setting": "[1]", "value": "1 to 5", "unit": "h"},
      {"measurement": "clearance", "setting": "[1]", "value": "0.5 to 5", "unit": "mL/min/kg"},
      {"measurement": "Vd", "setting": "[1]", "value": "0.1 to 0.3", "unit": "L/kg"},
      {"measurement": "remaining at 4 h, 0.2 mg/mL", "setting": "[2]", "value": 100, "unit": "%"},
      {"measurement": "remaining at 24 h, 0.1 mg/mL", "setting": "Stability in buffer; [5]", "value": 92, "unit": "%"},
      {"measurement": "remaining at 24 h, 0.1 mg/mL", "setting": "Stability in buffer; [6]", "value": 100, "unit": "%"},
      {"measurement": "remaining at 4 h, 0.2 mg/mL", "setting": "Stability in rat plasma", "value": 100, "unit": "%"}
    ]}
  ]
}
